In publication PMC8322138, “BRCA2 binding through a cryptic repeated motif to HSF2BP oligomers does not impact meiotic recombination” (Nature Communications, 2021):
Values belong to the molecule of their own block, whether it stands above or below them.

What was measured:
[1] = molecular target: mouse HSF2BP-GFP (homozygous Hsf2bp-GFP knock-in allele) (mouse (endogenous in mES cells)) (UniProt Q9D4G2); assay: co-IP; anti-GFP nanobody beads on lysates of Hsf2bp^GFP/GFP mES cells with Brca2 wt, ∆12 or ∆12-14 alleles; BRCA2 blotted, fluorescent secondary antibodies; NETT buffer
GFP-HSF2BP = assay: Co-immunoprecipitation of Flag-BRCA2 variants/fragments with GFP-HSF2BP WT; format: cell-based, human; settings: transient HEK293T, anti-GFP beads, immunoblot
Text: (§1) Expression constructs for producing point mutation and truncation variants of HS2BP and BRCA2 in human cells were engineered as described before[16] in the PiggyBac vectors by Gibson assembly. For transient expression into HEK293T cells plasmid DNA was transfected using calcium precipitation method or PEI transfection. For stable integration into HeLa cells, PiggyBac expression vectors were co-lipofected together with PiggyBac transposase plasmid (hyPBase[45]) with Lipofectamine 3000 (Thermo Fisher).
(§2) Cells were washed twice in ice-cold PBS and lysed in situ in NETT buffer (100 mM NaCl, 50 mM Tris pH 7.5, 5 mM EDTA pH 8.0, 0.5% Triton-X100) supplemented immediately before use with protease inhibitor cocktail (Roche) and 0.4 mg/ml Pefabloc (Roche) (NETT++); 450 µl NETT++ buffer was used per 145 mm dish ES cells, 1 ml for HeLa and HEK293T. After 5–10 min, cells were scraped off and collected in 1.5 ml microcentrifuge tubes; lysis was continued for additional 20–30 min on ice, then mixtures were centrifuged (15 min, 4 °C, 14,000 × g) and the supernatant (input) was added to washed anti-GFP beads (Chromotek). Beads and lysates were incubated 2–4 h at 4 °C while rotating, washed three times in NETT++ buffer and bound proteins were eluted by boiling in 2x Sample buffer. Immunoblotting was performed following standard procedures with the following antibodies: anti-GFP mAb (Roche, #11814460001), anti-GFP pAb (Abcam #ab290 and Invitrogen #A11122), anti-RAD51[46], anti-BRCA2 mAb Ab1 OP-95 (Millipore #OP95), anti-BRCA2 (Abcam #27976), anti-Flag (M2 antibody, Sigma, F3165 and F1804). For quantitative immunoblotting fluorescently labeled secondary antibodies were used: anti-mouse CF680 (Sigma #SAB460199), anti-rabbit CF770 (Sigma #SAB460215); membranes were scanned using Odyssey CLx imaging system (LI-COR).

[2] = system: H3 fragment (the ARM domain) of HSF2BP; assay: Co-immunoprecipitation of Flag-BRCA2 fragments with GFP-HSF2BP fragment H3; format: cell-based, human; settings: Fig. 1c; HEK293T; comparison with F15 and F9; reviewer's reading of the figure
Text: as §1
as §2, with “Beads and lysates were incubated 2–4 h at 4 °C while rotating, washed three times in NETT++ buffer and bound proteins were eluted by boiling in 2x Sample buffer. Immunoblotting was performed following standard procedures with the following antibodies: anti-GFP mAb (Roche, #11814460001), anti-GFP pAb (Abcam #ab290 and Invitrogen #A11122), anti-RAD51[46], anti-BRCA2 mAb Ab1 OP-95 (Millipore #OP95), anti-BRCA2 (Abcam #27976), anti-Flag (M2 antibody, Sigma, F3165 and F1804).” left out

[3] = molecular target: mouse BRCA2-GFP ∆12 (exon 12 deleted) (mouse (endogenous in mES cells)) (UniProt P97929); assay: co-IP; anti-GFP nanobody beads on lysates of mES cells with homozygous Brca2-GFP alleles (full, ∆12, ∆12-14); HSF2BP blotted, fluorescent secondary antibodies; NETT buffer
HSF2BP FL = molecular target: T1, HSF2BP FL (Homo sapiens, UniProt O75031); assay: ITC of BRCA2 fragments with full-length HSF2BP; format: binding
T1 construct: Human full-length HSF2BP WT and R200T were expressed; 6xHis-TEV (N, cleaved yes); made in house; host or cells: E. coli BL21 DE3 Rosetta2
T1 sequence (O75031 1-334): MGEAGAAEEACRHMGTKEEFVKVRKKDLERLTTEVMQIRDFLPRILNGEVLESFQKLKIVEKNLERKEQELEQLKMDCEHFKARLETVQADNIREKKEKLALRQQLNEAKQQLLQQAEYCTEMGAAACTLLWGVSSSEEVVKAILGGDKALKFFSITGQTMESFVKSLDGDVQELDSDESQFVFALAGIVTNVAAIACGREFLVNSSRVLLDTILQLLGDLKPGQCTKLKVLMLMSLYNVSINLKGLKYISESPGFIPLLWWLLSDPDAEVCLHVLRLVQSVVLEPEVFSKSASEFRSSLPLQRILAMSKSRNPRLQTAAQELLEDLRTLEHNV
Text: (§3) Human full-length HSF2BP WT and R200T were expressed using a pETM11 (6xHis-TEV) expression vector in E. coli BL21 DE3 Rosetta2 cells, and purified as previously reported (Brandsma et al., Cell Rep 2019). The armadillo domain of HSF2BP, from aa 122 to aa 334, which we will further name ARM, was similarly expressed using a pETM11 (6xHis-TEV) expression vector in BL21 DE3 Rosetta2 cells and purified as full-length HSF2BP.
(§4) Human BRCA2 fragment F0 was expressed using a pET-22b expression vector as a fusion protein comprising BRCA2 from aa 2213 to aa 2342 (including mutation C2332T to avoid oxidation problems), a TEV site, a GB1 and 6xHis tag, in E. coli BL21 DE3 Star cells. The BRCA2 gene was optimized for expression in bacteria and synthesized by Genscript. In addition, smaller BRCA2 fragments were produced using the same strategy: FNMR and F15X corresponding to aa 2252 to aa 2342 and aa 2291 to aa 2343, respectively. The smallest fragment F15X∆12, from aa 2312 to aa 2342, was synthesized by Genecust.
(§5) ITC experiments were performed using a high-precision VP-ITC instrument (GE Healthcare) at 293 K. To characterize the interactions between HSF2BP and BRCA2 fragments (WT, variants), the proteins were dialyzed against 25 mM Tris pH 7.5, 250 mM NaCl, 5 mM β-mercaptoethanol. The HSF2BP (or ARM domain) was in the sample cell at 10–20 μM and was titrated by BRCA2 fragments at 40–100 μM, using 10 μL injections with 210 s intervals between each injection. The first 2 μL injection was ignored in the final data analysis. The integration of the peaks corresponding to each injection. the correction for the baseline and the fit were performed using the Origin 7.0 software provided by the manufacturer, to obtain the stoichiometry (N), dissociation constant (Kd), and enthalpy of complex formation (ΔH) for each interaction. Two replicates were performed for each experiment.

ARM domain of HSF2BP [4] = molecular target: T2, ARM domain of HSF2BP (Homo sapiens, UniProt O75031); assay: ITC of BRCA2 fragments with HSF2BP armadillo domain; format: binding; settings: for ΔG / −TΔS / ΔH (±error): 293 K
T2 construct: The armadillo domain of HSF2BP, from aa 122 to aa 334; 6xHis-TEV (N, cleaved yes); made in house; host or cells: E. coli BL21 DE3 Rosetta2
T2 sequence (O75031 122-334): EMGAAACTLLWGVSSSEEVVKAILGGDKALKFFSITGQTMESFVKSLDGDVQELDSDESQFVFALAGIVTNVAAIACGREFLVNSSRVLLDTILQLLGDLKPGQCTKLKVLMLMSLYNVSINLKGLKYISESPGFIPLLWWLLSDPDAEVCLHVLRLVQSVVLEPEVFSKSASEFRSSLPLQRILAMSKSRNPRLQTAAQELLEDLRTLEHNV
Text: as §3, §4, §5

HSF2BP mutant R200T = assay: ITC of BRCA2 F0 with HSF2BP R200T; format: binding, human; settings: ITC control
Experimental: as §3, §5

ARM domain of HSF2BP [5] = molecular target: T2, ARM domain of HSF2BP; assay: 2D NMR 1H-15N HSQC of 15N-labeled F0 with ARM; format: binding; settings: 15N-F0 100 μM, ARM 1:1, 950 MHz, 283 K, pH 7.0; region S2252-Q2342
Experimental: (§6) For NMR analysis, ^15N-labeled or ^15N- and ^13C-labeled BRCA2 fragments were produced in E. coli BL21 DE3 Star cells grown in M9 medium containing either 0.5 g/l ^15NH4Cl or 0.5 g/l ^15NH4Cl and 2 g/l ^13C-glucose, respectively. […]
(§7) The ^15N/^13C-labeled F0 fragment was analyzed by 3D heteronuclear NMR. in order to assign its Hn, N, Cα, Cβ, and Co chemical shifts, and identify its binding site to HSF2BP. Therefore, 3D NMR HNCA, CBCACONH, HNCACB, HNCANNH, HNCO, and HNCACO experiments were performed on a 700 MHz Bruker AVANCE NEO spectrometer equipped with a triple resonance cryogenic TCI probe at 283 K. The data were processed using Topspin 4.0 (Bruker) and analyzed using CCPNMR 2.4[49]. […] For binding studies, 2D NMR ^1H-^15N HSQC experiments were recorded on a 3-mm-diameter sample tube containing the ^15N-labeled F0 at 100 μM in the absence and presence of the ARM domain at 100 μM, on a 950 MHz Bruker Avance III spectrometer equipped with a triple resonance cryogenic TCI probe at 283 K.

[6] = NMR chemical shift secondary structure analysis of F0; format: physicochemical, human; settings: 50 mM Hepes pH 7.0, 50 mM NaCl, 283 K, 700 MHz
Experimental: as §6, §7

[7] = molecular target: the molecule itself; assay: SEC-MALS; free ARM; Superdex 200 10/300 GL; 25 mM Tris-HCl pH 7.5, 250 mM NaCl, 5 mM beta-mercaptoethanol; 0.8-1 mg/ml in 100 ul
[8] = molecular target: the molecule itself; assay: SEC-MALS + other: SEC-SAXS; ARM with F15X; SEC-MALS on Superdex 200 10/300 GL, SEC-SAXS on Bio SEC-3; 25 mM Tris-HCl pH 7.5, 250 mM NaCl, 5 mM beta-mercaptoethanol; tetramer = two ARM dimers with two F15X

Sequence of mouse BRCA2-GFP ∆12 (exon 12 deleted) (mouse (endogenous in mES cells)) (P97929 whole entry, stated change not applied, the tested form may be a part): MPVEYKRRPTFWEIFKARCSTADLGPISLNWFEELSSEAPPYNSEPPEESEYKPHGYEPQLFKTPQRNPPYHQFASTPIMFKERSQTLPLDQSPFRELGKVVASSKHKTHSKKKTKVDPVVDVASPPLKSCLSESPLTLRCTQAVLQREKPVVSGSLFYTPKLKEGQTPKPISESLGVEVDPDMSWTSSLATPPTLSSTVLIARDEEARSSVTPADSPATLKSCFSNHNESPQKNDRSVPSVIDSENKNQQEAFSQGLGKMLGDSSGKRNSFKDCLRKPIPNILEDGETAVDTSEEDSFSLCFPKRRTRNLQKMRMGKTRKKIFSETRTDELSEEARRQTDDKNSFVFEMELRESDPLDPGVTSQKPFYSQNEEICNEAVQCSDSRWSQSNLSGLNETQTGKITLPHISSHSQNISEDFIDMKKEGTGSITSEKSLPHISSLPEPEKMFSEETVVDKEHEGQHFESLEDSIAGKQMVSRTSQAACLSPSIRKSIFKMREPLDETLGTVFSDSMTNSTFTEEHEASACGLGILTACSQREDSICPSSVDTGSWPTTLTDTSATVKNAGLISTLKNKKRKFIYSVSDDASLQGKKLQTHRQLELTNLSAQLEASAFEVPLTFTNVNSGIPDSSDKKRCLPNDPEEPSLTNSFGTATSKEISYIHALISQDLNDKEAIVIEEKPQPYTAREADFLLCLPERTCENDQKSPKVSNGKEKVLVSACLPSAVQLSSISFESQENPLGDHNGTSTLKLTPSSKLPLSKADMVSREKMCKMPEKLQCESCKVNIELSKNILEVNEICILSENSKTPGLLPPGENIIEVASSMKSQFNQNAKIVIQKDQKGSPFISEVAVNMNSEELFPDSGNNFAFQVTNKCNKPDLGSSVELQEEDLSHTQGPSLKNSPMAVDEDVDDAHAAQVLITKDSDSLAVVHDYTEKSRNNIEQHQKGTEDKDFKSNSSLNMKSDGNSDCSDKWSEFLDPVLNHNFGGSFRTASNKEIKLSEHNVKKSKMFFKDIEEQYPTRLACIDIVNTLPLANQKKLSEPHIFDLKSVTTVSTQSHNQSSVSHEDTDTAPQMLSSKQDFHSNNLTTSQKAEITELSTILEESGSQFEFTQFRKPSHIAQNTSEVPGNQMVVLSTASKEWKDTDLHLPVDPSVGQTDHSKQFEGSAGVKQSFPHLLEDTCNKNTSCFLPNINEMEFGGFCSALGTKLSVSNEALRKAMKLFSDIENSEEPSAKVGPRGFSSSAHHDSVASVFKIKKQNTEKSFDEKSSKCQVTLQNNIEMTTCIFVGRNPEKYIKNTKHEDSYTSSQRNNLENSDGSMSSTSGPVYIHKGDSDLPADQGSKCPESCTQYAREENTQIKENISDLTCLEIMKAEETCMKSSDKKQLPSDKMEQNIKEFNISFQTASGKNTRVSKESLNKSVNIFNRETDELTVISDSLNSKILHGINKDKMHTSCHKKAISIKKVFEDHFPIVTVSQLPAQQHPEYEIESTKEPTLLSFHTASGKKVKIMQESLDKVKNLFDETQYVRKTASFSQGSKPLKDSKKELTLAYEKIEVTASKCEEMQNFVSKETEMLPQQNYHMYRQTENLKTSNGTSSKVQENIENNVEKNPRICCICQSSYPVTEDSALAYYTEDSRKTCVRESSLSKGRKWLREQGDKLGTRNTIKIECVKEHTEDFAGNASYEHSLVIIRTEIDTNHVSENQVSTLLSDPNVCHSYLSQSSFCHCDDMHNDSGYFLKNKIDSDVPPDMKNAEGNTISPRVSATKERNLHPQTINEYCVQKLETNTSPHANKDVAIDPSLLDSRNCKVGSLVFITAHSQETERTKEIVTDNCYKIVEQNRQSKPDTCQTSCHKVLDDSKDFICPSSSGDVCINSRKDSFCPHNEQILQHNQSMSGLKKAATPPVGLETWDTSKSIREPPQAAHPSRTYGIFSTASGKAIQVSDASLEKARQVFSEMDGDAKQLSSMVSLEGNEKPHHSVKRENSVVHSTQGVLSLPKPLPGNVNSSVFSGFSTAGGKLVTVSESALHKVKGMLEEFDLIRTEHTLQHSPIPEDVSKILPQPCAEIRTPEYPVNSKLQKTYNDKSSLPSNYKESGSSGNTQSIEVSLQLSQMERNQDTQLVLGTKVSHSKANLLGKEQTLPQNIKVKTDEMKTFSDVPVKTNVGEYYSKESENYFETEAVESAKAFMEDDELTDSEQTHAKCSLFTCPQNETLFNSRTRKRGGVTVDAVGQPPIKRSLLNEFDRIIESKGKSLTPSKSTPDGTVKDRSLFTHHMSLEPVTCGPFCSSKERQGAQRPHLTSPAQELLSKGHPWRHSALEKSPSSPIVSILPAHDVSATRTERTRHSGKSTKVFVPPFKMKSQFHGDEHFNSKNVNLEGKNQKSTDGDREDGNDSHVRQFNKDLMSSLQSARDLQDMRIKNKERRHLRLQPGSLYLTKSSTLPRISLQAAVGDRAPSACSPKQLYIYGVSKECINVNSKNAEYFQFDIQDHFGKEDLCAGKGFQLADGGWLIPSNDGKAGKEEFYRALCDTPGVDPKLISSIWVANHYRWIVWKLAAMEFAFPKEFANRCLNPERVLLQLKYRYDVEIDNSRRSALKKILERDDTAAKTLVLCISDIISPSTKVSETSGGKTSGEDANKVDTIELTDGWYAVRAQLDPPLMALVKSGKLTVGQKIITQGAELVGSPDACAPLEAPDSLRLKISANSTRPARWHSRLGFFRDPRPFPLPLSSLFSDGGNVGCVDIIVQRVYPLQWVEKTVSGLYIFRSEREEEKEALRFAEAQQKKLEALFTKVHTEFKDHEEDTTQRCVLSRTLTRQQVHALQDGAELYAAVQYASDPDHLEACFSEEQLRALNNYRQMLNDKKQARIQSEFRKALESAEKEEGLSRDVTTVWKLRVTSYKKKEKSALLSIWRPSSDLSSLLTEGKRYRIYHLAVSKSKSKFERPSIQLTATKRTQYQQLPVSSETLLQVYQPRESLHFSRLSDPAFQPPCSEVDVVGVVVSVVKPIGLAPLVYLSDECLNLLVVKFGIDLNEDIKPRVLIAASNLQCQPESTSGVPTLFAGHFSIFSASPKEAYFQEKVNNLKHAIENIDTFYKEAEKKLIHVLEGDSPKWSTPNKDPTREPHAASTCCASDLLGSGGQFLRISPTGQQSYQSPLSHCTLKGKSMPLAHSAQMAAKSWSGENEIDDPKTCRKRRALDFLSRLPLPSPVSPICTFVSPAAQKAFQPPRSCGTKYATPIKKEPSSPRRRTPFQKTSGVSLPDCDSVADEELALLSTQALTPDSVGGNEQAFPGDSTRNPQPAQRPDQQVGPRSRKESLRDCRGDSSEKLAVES

- percent loss of co-precipitation against wild-type BRCA2 [1]: 97 to 99%
Molecule: mouse BRCA2-∆12 in Hsf2bp^GFP/GFP Brca2^∆12/∆12 mES cells (from UniProt P97929 1-3329) (natural protein)

B1: F16: Flag-tagged BRCA2 fragment 2270-2333 (protein, UniProt P51587 2270-2333, looked up, fragment)
chain: GKRRGEPLILVGEPSIKRNLLNEFDRIIENQEKSLKASKSTPDGTIKDRRLFMHHVSLEPITCV
modifications: Flag tag
- interaction with HSF2BP (co-precipitation) (GFP-HSF2BP): reduced efficiency
- interaction with H3 (co-precipitation) [2]: same level of interaction

- percent loss of co-precipitation against full-length BRCA2-GFP [3]: 95%
B2: mouse HSF2BP, endogenous in mES cells (natural protein)
chain: MAATVGDGSGTEEACRNMESKEEFVKVRKKDLERLTTEVMQIRDFLPRILNGELLESFQKLKMVEKNLERKEQELEQLIMDREHFKARLETAQADSGREKKEKLALRQQLNEAKQQLLQQAEYCTQMGAVTCTLLWGVSSSEEVVKTILGGDKALKFFNITGQTMESFVKSLDGDVKEVDSDENQFVFALAGIVTNVAAIACGREFLVNSSRVLLDTMLQLLGDLKPGQCTKLKVLMLMSLYNVSINSKGLKYITESPGFIPLLWWLLSDPDAEVCLHTLRLIQSVVLEPDVFSKVASELQSSLPLQRILAMSKSRNSHLQSAAQELLEDLRALDCNV

- ΔG (HSF2BP FL; 293 K, pH 7.5, expt 1): -11.8 kcal/mol
- −TΔS (HSF2BP FL; 293 K, pH 7.5, expt 1): -0.8 kcal/mol
- ΔH (±error) (HSF2BP FL; 293 K, pH 7.5, expt 1, error in brackets): −11.0 (0.1) kcal/mol
- −TΔS (HSF2BP FL; 293 K, pH 7.5, expt 2): -1.0 kcal/mol
- ΔH (±error) (HSF2BP FL; 293 K, pH 7.5, expt 2, error in brackets): −10.9 (0.1) kcal/mol
- stoichiometry (HSF2BP FL; BRCA2 peptide per HSF2BP): 0.5
- affinity ratio HSF2BP vs ARM (HSF2BP FL; HSF2BP binds tighter to F0 than does ARM): about 25 -fold
- ΔG (ARM domain of HSF2BP [4]; pH 7.5, expt 1): -10 kcal/mol
- −TΔS (ARM domain of HSF2BP [4]; pH 7.5, expt 1): -1.7 kcal/mol
- ΔH (±error) (ARM domain of HSF2BP [4]; pH 7.5, expt 1, error in brackets): −8.3 (0.2) kcal/mol
- ΔG (ARM domain of HSF2BP [4]; pH 7.5, expt 2): -10.1 kcal/mol
- −TΔS (ARM domain of HSF2BP [4]; pH 7.5, expt 2): 1.8 kcal/mol
- ΔH (±error) (ARM domain of HSF2BP [4]; pH 7.5, expt 2, error in brackets): −11.9 (0.2) kcal/mol
- stoichiometry (ARM domain of HSF2BP [4]; one BRCA2 peptide binds to two ARM): 0.5
- binding (HSF2BP mutant R200T): does not bind
- HSQC peak intensity ratio (with ARM / free) (ARM domain of HSF2BP [5]): lower than 0.4
B3: F0: Human BRCA2 fragment aa 2213 to aa 2342 including mutation C2332T, recombinant (protein)
chain: STYSKDSENYFETEAVEIAKAFMEDDELTDSKLPSHATHSLFTCPENEEMVLSNSRIGKRRGEPLILVGEPSIKRNLLNEFDRIIENQEKSLKASKSTPDGTIKDRRLFMHHVSLEPITTVPFRTTKERQ
modifications: left off: GB1, C-terminal, cleaved | His6, C-terminal, cleaved
notes: Human BRCA2 fragment aa 2213 to aa 2342 including mutation C2332T, recombinant
- transient α-helix population, region N2291-S2303 [6]: about 25%

B4: armadillo domain of HSF2BP, from aa 122 to aa 334 (ARM) (domain or fragment, human, UniProt O75031 122-334, looked up)
chain: EMGAAACTLLWGVSSSEEVVKAILGGDKALKFFSITGQTMESFVKSLDGDVQELDSDESQFVFALAGIVTNVAAIACGREFLVNSSRVLLDTILQLLGDLKPGQCTKLKVLMLMSLYNVSINLKGLKYISESPGFIPLLWWLLSDPDAEVCLHVLRLVQSVVLEPEVFSKSASEFRSSLPLQRILAMSKSRNPRLQTAAQELLEDLRTLEHNV
notes: Free ARM is a dimer (SEC-MALS); four ARM with two F15X in the complex; A selenomethionine-labelled form was used for the deposited crystal structure; also called HSF2BP ARM; H3 (recombinant); source: E. coli BL21 DE3 Rosetta2, purified (HisTrap, TEV cleavage, SEC)
- stoichiometry N [7]: 2
- stoichiometry N [8]: 4
